Source: patent US12649778
Numbering of substitutions follows the chain as printed. Names may count otherwise. “And” between values parts separate entries of the source, which are not always exact repeats. Equal values may be shown once. Read-outs that look alike come from different tables or passages of the source.

B1: chimeric Fab antibody of 65D3 (wild type) (Fab, V domains shown)
VH: QSLEESGGRLVTPGGSLTLTCTVSGFSLSTHDISWVRQAPGKGLEWIGVIARRGSTYYASWAKGRFTISKTSTTVDLKITSPTIEDTATYFCAREEFDFWGQGTLVTVSS
VL: AVLTQTASPVSAAVGGTVTISCQSSQSVYNNKELSWFQQKPGQPPKLLISYASTLASGVPSRFKGSGSGTQFTLTISDLECDDAATYYCLGGYASTIDMWAFGGGTEVVVK
B2: 65D3 mutant IgG variant 1 (S55W&G64K-VH + S57T-VL) (antibody)
heavy: QSLEESGGRLVTPGGSLTLTCTVSGFSLSTHDISWVRQAPGKGLEWIGVIARRGWTYYASWAKKRFTISKTSTTVDLKITSPTIEDTATYFCAREEFDFWGQGTLVTVSSGQPKAPSVFPLAPCCGDTPSSTVTLGCLVKGYLPEPVTVTWNSGTLTNGVRTFPSVRQSSGLYSLSSVVSVTSSSQPVTCNVAHPATNTKVDKTVAPSTCSKPTCPPPELLGGPSVFIFPPKPKDTLMISRTPEVTCVVVDVSQDDPEVQFTWYINNEQVRTARPPLREQQFNSTIRVVSTLPIAHQDWLRGKEFKCKVHNKALPAPIEKTISKARGQPLEPKVYTMGPPREELSSRSVSLTCMINGFYPSDISVEWEKNGKAEDNYKTTPAVLDSDGSYFLYSKLSVPTSEWQRGDVFTCSVMHEALHNHYTQKSISRSPGK
light: AVLTQTASPVSAAVGGTVTISCQSSQSVYNNKELSWFQQKPGQPPKLLISYASTLATGVPSRFKGSGSGTQFTLTISDLECDDAATYYCLGGYASTIDMWAFGGGTEVVVKGDPVAPTVLIFPPAADQVATGTVTIVCVANKYFPDVTVTWEVDGTTQTTGIENSKTPQNSADCTYNLSSTLTLTSTQYNSHKEYTCKVTQGTTSVVQSFNRGDC
B3: 65D3 mutant IgG variant 3 (S55W-VH + VL) (antibody)
heavy: B2 heavy with K64G
VL: B1 VL

Columns and labels:
[1] = target: Peptide 1593 (…) (Mycobacterium tuberculosis); assay: ELISA, Fab supernatant on coated peptide
[2] = target: Peptide 1593 (…) (Mycobacterium tuberculosis)
[3] = target: Peptide 1593 (…) (Mycobacterium tuberculosis); remark: listed apart in the source
[4] = target: Peptide 1593 (…) (Mycobacterium tuberculosis); assay: SPR (Biacore), IgG amine-coupled, peptide as analyte

Row | Binder | OD450 at 0.00390625 ug/ml coated antigen [1] | OD450 at 0.0078125 ug/ml coated antigen [1] | OD450 at 0.00953125 ug/ml coated antigen (so in the source) [1] [OD450] | OD450 at 0.015625 ug/ml coated antigen [1] | OD450 at 0.03125 ug/ml coated antigen [1] | OD450 at 0.0625 ug/ml coated antigen [1] | OD450 at 0.125 ug/ml coated antigen [1] | OD450 at 0.25 ug/ml coated antigen [1] | OD450 at 0.5 ug/ml coated antigen [1] | OD450 at 1 ug/ml coated antigen [1] | OD450 nm (single well) [2] | Kd [3] [nM] | Kd [4] [nM] | koff [4] [s⁻¹] | kon [4] [M⁻¹ s⁻¹]
1 | B1 | 0.133 OD450 and 0.147 OD450 | 0.319 OD450 and 0.341 OD450 | 0.084 | 0.73 OD450 and 0.789 OD450 | 1.21 OD450 and 1.37 OD450 | 1.71 OD450 and 1.8 OD450 | 1.94 OD450 and 2.04 OD450 | 2.18 OD450 and 2.23 OD450 | 2.27 OD450 and 2.25 OD450 | 2.3 OD450 and 2.31 OD450 | 0.879 and 0.794 |  |  |  | 
2 | B2 |  |  |  |  |  |  |  |  |  |  |  | 2.7 | 2.6 | 0.00027 | 104000
3 | B3 |  |  |  |  |  |  |  |  |  |  |  |  | 2.03 | 0.00026 | 128000
